From PMC9352680, “A comprehensive thermodynamic model for RNA binding by the Saccharomyces cerevisiae Pumilio protein PUF4”
Numbering of substitutions follows the chain as printed. In names and notes the source's numbering stands.

T1: PUF4 RNA-binding domain (Saccharomyces cerevisiae, UniProt P25339 537-888)
T1 sequence: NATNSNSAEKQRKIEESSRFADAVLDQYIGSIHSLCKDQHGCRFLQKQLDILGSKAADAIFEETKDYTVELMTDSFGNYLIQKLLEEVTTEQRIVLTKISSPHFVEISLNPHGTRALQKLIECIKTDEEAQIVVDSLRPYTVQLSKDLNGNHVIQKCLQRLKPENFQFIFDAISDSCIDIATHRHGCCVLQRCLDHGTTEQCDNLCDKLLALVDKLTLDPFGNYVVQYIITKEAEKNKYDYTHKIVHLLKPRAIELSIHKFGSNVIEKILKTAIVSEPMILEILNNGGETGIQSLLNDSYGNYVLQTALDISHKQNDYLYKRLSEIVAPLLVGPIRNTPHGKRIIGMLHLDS

B1: Ib_S1_P5E.1_K5.1_C5.1_H5.1_[G2T]_A5.1_F5.1_[T8G]_T5.1 (ssRNA)
RNA: UCUCUUUUUAUUAGUAUCUCUU
B2: Id_ii_S2_P3E.2_K3.1_C3.2_[C-2G]_[T-1G]_H3.1_A3.1_F3.1_T3.2_[T9A]_[A10T] (ssRNA)
RNA: UUUGAUUAAUAUGAUAUCGUUCUUUCUGGUGUAUAUAAUUUCUUUCUCGAUAUCAUAUUAAUCUUU
B3: Id_ii_S2_P3E.2_K3.1_C3.2_[C-2T]_[T-1A]_H3.1_A3.1_F3.1_T3.2_[T9C]_[A10T] (ssRNA)
RNA: B2 RNA with G28U, G29A, A38C
B4: Id_ii_S2_P3E.2_K3.1_C3.2_[C-2T]_[T-1G]_H3.1_A3.1_F3.1_T3.2_[A10T] (ssRNA)
RNA: B2 RNA with G28U, A38U
B5: Id_ii_S2_P3E.2_K3.1_C3.2_[C-2T]_H3.1_A3.1_F3.1_T3.2_[T9A]_[A10C] (ssRNA)
RNA: B2 RNA with G28U, G29U, U39C
B6: Id_ii_S2_P3E.2_K3.1_C3.2_[C-2T]_H3.1_A3.1_F3.1_T3.2_[T9C]_[A10C] (ssRNA)
RNA: B2 RNA with G28U, G29U, A38C, U39C
B7: Id_ii_S2_P3E.2_K3.1_C3.2_[C-2T]_[T-1C]_H3.1_A3.1_F3.1_T3.2_[T9C] (ssRNA)
RNA: B2 RNA with G28U, G29C, A38C, U39A
B8: Id_ii_S2_P3E.2_K3.1_C3.2_[C-2G]_H3.1_A3.1_F3.1_T3.2_[A10T] (ssRNA)
RNA: B2 RNA with G29U, A38U
B9: Id_ii_S2_P3E.2_K3.1_C3.2_[C-2A]_H3.1_A3.1_F3.1_T3.2_[T9C]_[A10G] (ssRNA)
RNA: B2 RNA with G28A, G29U, A38C, U39G
B10: Id_ii_S2_P3E.2_K3.1_C3.2_[C-2G]_[T-1C]_H3.1_A3.1_F3.1_T3.2_[T9C]_[A10G] (ssRNA)
RNA: B2 RNA with G29C, A38C, U39G
B11: Id_ii_S2_P3E.2_K3.1_C3.2_[C-2A]_[T-1A]_H3.1_A3.1_F3.1_T3.2_[A10T] (ssRNA)
RNA: B2 RNA with G28A, G29A, A38U
B12: Id_ii_S2_P3E.2_K3.1_C3.2_[C-2A]_[T-1A]_H3.1_A3.1_F3.1_T3.2_[A10G] (ssRNA)
RNA: B2 RNA with G28A, G29A, A38U, U39G
B13: Id_ii_S2_P3E.2_K3.1_C3.2_[C-2T]_[T-1C]_H3.1_A3.1_F3.1_T3.2_[T9C]_[A10C] (ssRNA)
RNA: B2 RNA with G28U, G29C, A38C, U39C
B14: Id_ii_S2_P3E.2_K3.1_C3.2_[C-2T]_[T-1A]_H3.1_A3.1_F3.1_T3.2_[T9A] (ssRNA)
RNA: B2 RNA with G28U, G29A, U39A
B15: Id_ii_S2_P3E.2_K3.1_C3.2_[C-2A]_[T-1C]_H3.1_A3.1_F3.1_T3.2_[T9G]_[A10C] (ssRNA)
RNA: B2 RNA with G28A, G29C, A38G, U39C
B16: Id_ii_S2_P3E.2_K3.1_C3.2_[C-2G]_[T-1C]_H3.1_A3.1_F3.1_T3.2_[A10T] (ssRNA)
RNA: B2 RNA with G29C, A38U
B17: Id_ii_S2_P3E.2_K3.1_C3.2_[C-2T]_[T-1G]_H3.1_A3.1_F3.1_T3.2_[T9G]_[A10C] (ssRNA)
RNA: B2 RNA with G28U, A38G, U39C
B18: Id_ii_S2_P3E.2_K3.1_C3.2_[C-2T]_H3.1_A3.1_F3.1_T3.2 (ssRNA)
RNA: B2 RNA with G28U, G29U, A38U, U39A
B19: Id_ii_S2_P3E.2_K3.1_C3.2_[C-2T]_[T-1A]_H3.1_A3.1_F3.1_T3.2_[T9A]_[A10T] (ssRNA)
RNA: B2 RNA with G28U, G29A
B20: Id_ii_S2_P3E.2_K3.1_C3.2_[C-2T]_H3.1_A3.1_F3.1_T3.2_[T9C]_[A10G] (ssRNA)
RNA: B2 RNA with G28U, G29U, A38C, U39G
B21: Id_ii_S2_P3E.2_K3.1_C3.2_[C-2T]_[T-1G]_H3.1_A3.1_F3.1_T3.2_[A10C] (ssRNA)
RNA: B2 RNA with G28U, A38U, U39C
B22: Id_ii_S2_P3E.2_K3.1_C3.2_[C-2G]_H3.1_A3.1_F3.1_T3.2_[T9C]_[A10C] (ssRNA)
RNA: B2 RNA with G29U, A38C, U39C
B23: Id_ii_S2_P3E.2_K3.1_C3.2_[C-2A]_[T-1G]_H3.1_A3.1_F3.1_T3.2_[A10G] (ssRNA)
RNA: B2 RNA with G28A, A38U, U39G
B24: Id_ii_S2_P3E.2_K3.1_C3.2_[C-2T]_[T-1A]_H3.1_A3.1_F3.1_T3.2_[A10G] (ssRNA)
RNA: B2 RNA with G28U, G29A, A38U, U39G
B25: Id_ii_S2_P3E.2_K3.1_C3.2_[C-2T]_[T-1A]_H3.1_A3.1_F3.1_T3.2_[A10C] (ssRNA)
RNA: B2 RNA with G28U, G29A, A38U, U39C
B26: Id_ii_S2_P3E.2_K3.1_C3.2_[C-2T]_H3.1_A3.1_F3.1_T3.2_[A10C] (ssRNA)
RNA: B2 RNA with G28U, G29U, A38U, U39C
B27: Id_ii_S2_P3E.2_K3.1_C3.2_[C-2T]_H3.1_A3.1_F3.1_T3.2_[A10T] (ssRNA)
RNA: B2 RNA with G28U, G29U, A38U
B28: Id_ii_S2_P3E.2_K3.1_C3.2_[C-2T]_H3.1_A3.1_F3.1_T3.2_[T9C]_[A10T] (ssRNA)
RNA: B2 RNA with G28U, G29U, A38C
B29: Id_ii_S2_P3E.2_K3.1_C3.2_[C-2T]_[T-1C]_H3.1_A3.1_F3.1_T3.2_[A10T] (ssRNA)
RNA: B2 RNA with G28U, G29C, A38U

Target: T1, PUF4 RNA-binding domain
Test: Mg; RNA-MaP; 20 mM Na-HEPES pH 7.4, 30 mM KOAc, 0.75 mM MgCl2, 0.1% Tween-20, 5% glycerol, 0.1 mg/mL BSA, 2 mM DTT; 25 C; 0.0125-409.6 nM protein
Details: tags: N-His6-TEV cleaved; C-SNAP kept, Cy3B-labelled; label: tethered on chip by stalled RNA polymerase

Binder	Kd
B1	> 2300 nM
B2	3.82 nM
B3	5.43 nM
B4	1.33 nM
B5	4.14 nM
B6	2.82 nM
B7	7.13 nM
B8	2.02 nM
B9	19 nM
B10	20.2 nM
B11	6.37 nM
B12	7.2 nM
B13	3.42 nM
B14	16.9 nM
B15	7.15 nM
B16	1.77 nM
B17	6.53 nM
B18	1.24 nM
B19	14.1 nM
B20	3.7 nM
B21	3.49 nM
B22	18 nM
B23	5.7 nM
B24	31.5 nM
B25	6.09 nM
B26	1.55 nM
B27	1.56 nM
B28	4.94 nM
B29	1.17 nM
